Data taken from US20210269545A1.

Key:
CD38 on cells (human) [1] = target: CD38 on cells (human) (UniProt P28907); test: flow cytometry, Raji cells; adjusted fit with the top asymptote fixed at about the maximum response of Darzalex
CD38 on cells (human) [2] = target: CD38 on cells (human) (UniProt P28907); test: flow cytometry, Raji cells expressing CD19 and CD38
CD38 on cells (human) [3] = target: CD38 on cells (human) (UniProt P28907); test: as above; remark: listed apart in the source
CD38 on cells (human) [4] = target: CD38 on cells (human) (UniProt P28907); test: flow cytometry, Raji cells expressing CD19 and CD38 (negative control)
CD19 on cells (human) = CD19 on cells (human) (UniProt P15391); test: as above
Chain of CD19 on cells (human) (P15391 20-556): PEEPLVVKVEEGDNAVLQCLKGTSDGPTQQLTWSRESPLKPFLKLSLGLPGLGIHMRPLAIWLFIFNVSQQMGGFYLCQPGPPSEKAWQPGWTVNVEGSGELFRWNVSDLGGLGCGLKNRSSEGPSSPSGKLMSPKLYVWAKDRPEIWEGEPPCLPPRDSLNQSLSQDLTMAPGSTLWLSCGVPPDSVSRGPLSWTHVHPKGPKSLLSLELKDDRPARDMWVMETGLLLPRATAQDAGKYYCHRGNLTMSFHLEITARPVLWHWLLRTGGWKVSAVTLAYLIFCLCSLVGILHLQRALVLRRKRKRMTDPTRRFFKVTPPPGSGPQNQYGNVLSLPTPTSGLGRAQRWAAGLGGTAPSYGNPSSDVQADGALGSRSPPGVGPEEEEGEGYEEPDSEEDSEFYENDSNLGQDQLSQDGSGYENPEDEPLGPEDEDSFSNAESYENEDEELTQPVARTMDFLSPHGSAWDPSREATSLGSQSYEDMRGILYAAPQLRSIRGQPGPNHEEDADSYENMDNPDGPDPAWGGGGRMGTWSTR

EC50 (CD38 on cells (human) [1])	EC50 (CD38 on cells (human) [2])	EC50 (CD38 on cells (human) [3])	Max MFI (CD38 on cells (human) [3])	EC50 (CD38 on cells (human) [4])	Max MFI (CD38 on cells (human) [4])	EC50 (CD19 on cells (human))	Max MFI (CD19 on cells (human))	Substance
1.27 nM	1.27 nM	0.195 µg/mL	4.02e+06 MFI	–	–	–	–	Darzalex (antibody)
–	–	–	–	4620 µg/mL	38700 MFI	4620 µg/mL	38700 MFI	IgG1 isotype control (antibody)
